Assay results published in patent US20150064134A1.

What was measured:
Experiment in all cases: cell-based or functional assay
TrkA(h) (human) = TrkA(h) (human) (UniProt P04629)
BrSK1(h) (human) = biological target: T1, BrSK1(h) (human) (UniProt Q8TDC3)
T1 sequence (looked up): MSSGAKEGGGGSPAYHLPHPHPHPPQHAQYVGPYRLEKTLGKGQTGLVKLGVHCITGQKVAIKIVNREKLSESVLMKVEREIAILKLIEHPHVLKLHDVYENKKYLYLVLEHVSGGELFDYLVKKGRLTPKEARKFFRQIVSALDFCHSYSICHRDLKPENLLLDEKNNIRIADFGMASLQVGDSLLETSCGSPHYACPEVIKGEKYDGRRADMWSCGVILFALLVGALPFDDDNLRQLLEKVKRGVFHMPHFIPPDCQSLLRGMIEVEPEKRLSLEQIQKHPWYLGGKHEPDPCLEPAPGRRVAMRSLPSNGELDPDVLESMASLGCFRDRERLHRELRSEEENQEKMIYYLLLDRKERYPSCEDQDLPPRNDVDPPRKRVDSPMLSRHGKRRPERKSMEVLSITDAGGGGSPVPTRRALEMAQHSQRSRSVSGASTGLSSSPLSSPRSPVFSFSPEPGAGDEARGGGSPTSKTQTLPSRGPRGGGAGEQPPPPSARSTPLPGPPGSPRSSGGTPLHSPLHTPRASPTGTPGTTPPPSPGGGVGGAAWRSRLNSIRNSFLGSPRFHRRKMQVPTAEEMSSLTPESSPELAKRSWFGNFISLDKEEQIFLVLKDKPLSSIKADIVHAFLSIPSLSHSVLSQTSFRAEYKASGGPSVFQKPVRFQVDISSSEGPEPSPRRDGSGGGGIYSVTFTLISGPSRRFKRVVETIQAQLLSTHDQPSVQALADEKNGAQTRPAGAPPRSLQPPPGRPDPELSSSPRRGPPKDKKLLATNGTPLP

PKCµ(h) (human) = biological target: T2, PKCµ(h) (human) (UniProt Q15139)
T2 sequence (looked up): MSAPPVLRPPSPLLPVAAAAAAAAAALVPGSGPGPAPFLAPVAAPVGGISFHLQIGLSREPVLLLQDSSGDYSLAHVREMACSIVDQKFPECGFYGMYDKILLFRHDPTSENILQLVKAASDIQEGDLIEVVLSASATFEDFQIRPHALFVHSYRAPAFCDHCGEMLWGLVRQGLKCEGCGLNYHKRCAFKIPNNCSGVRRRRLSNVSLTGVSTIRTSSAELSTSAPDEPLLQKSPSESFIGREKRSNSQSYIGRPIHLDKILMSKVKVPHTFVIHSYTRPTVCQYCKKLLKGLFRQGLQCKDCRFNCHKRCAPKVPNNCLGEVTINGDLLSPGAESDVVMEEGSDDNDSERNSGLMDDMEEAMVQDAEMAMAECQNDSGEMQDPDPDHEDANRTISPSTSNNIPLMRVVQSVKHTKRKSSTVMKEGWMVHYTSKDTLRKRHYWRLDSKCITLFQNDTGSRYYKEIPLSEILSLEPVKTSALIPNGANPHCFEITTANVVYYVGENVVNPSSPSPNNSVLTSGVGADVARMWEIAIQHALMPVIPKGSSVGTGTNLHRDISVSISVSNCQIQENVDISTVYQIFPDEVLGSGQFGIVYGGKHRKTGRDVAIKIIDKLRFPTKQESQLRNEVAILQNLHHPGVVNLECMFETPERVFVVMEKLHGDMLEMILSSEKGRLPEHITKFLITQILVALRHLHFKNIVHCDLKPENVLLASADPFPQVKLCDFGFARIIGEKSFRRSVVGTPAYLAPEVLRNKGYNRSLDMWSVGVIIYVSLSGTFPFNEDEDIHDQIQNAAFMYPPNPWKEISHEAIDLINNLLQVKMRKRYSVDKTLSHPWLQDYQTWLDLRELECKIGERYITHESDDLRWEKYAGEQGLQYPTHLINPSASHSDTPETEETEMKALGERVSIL

CDK2/cyclinA(h) (human) = CDK2/cyclinA(h) (human) (UniProt P24941)
HIPK2(h) (human) = HIPK2(h) (human) (UniProt Q9H2X6)
Rsk3(h) (human) = Rsk3(h) (human) (UniProt Q15349)
Chain of Rsk3(h) (human) (Q15349 whole entry): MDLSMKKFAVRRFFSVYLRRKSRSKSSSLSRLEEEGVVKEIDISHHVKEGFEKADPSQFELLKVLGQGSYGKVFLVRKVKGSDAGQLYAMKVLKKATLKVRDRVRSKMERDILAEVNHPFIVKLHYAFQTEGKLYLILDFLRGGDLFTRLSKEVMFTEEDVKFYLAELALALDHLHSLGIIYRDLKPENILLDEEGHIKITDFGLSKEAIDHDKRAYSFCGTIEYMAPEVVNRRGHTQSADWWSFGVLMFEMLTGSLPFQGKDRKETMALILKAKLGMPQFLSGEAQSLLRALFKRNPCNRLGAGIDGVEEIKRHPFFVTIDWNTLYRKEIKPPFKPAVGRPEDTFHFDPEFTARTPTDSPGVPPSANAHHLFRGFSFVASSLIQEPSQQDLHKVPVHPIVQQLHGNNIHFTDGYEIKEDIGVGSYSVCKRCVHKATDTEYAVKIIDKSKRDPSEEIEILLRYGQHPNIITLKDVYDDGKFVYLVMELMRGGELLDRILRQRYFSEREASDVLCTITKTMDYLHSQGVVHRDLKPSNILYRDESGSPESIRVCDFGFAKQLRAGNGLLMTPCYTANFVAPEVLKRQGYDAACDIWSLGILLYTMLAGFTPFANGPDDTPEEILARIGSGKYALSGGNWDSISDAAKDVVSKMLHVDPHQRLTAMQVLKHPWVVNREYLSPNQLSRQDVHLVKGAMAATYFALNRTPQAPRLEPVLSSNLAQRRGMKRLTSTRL

MKK6(h) (human) = MKK6(h) (human) (UniProt P52564)
eEF-2K(h) (human) = biological target: T3, eEF-2K(h) (human) (UniProt O00418)
T3 sequence (looked up): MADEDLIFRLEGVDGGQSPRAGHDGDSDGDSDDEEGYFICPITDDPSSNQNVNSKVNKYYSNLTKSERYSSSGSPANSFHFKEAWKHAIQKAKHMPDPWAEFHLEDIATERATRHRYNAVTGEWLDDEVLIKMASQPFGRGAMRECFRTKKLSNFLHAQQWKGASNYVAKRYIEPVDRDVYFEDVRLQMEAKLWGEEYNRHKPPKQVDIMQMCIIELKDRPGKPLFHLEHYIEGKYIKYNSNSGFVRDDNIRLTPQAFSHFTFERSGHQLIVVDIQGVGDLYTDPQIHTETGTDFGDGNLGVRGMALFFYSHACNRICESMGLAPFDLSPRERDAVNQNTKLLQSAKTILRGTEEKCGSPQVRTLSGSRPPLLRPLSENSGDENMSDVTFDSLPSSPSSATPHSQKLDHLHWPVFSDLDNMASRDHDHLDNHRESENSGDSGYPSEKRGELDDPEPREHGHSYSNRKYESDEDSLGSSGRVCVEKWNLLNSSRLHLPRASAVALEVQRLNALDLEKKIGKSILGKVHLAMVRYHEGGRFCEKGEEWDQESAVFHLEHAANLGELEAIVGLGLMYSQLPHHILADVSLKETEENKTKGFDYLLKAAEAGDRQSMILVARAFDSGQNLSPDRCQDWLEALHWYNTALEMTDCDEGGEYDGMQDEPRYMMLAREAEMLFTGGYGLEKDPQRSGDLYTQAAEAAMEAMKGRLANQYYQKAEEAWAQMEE

[1] = biological target: IGF-1R(h), activated (human) (UniProt P08069)
Chain of IGF-1R(h), activated (human) (P08069 959-1367 limits assumed): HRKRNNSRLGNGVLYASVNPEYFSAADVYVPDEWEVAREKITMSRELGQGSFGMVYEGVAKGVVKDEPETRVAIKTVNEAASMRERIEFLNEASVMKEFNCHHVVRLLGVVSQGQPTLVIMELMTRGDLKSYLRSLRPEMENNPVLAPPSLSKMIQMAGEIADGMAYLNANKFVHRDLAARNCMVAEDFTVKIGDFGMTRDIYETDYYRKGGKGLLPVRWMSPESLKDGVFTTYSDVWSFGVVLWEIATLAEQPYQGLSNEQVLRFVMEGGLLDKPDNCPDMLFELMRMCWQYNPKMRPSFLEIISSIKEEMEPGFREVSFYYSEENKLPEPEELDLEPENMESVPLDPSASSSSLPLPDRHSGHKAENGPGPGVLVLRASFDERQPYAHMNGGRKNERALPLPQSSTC

Arg(h) (human) = Arg(h) (human) (UniProt P42684)
Chain of Arg(h) (human) (P42684 38-1182 limits assumed): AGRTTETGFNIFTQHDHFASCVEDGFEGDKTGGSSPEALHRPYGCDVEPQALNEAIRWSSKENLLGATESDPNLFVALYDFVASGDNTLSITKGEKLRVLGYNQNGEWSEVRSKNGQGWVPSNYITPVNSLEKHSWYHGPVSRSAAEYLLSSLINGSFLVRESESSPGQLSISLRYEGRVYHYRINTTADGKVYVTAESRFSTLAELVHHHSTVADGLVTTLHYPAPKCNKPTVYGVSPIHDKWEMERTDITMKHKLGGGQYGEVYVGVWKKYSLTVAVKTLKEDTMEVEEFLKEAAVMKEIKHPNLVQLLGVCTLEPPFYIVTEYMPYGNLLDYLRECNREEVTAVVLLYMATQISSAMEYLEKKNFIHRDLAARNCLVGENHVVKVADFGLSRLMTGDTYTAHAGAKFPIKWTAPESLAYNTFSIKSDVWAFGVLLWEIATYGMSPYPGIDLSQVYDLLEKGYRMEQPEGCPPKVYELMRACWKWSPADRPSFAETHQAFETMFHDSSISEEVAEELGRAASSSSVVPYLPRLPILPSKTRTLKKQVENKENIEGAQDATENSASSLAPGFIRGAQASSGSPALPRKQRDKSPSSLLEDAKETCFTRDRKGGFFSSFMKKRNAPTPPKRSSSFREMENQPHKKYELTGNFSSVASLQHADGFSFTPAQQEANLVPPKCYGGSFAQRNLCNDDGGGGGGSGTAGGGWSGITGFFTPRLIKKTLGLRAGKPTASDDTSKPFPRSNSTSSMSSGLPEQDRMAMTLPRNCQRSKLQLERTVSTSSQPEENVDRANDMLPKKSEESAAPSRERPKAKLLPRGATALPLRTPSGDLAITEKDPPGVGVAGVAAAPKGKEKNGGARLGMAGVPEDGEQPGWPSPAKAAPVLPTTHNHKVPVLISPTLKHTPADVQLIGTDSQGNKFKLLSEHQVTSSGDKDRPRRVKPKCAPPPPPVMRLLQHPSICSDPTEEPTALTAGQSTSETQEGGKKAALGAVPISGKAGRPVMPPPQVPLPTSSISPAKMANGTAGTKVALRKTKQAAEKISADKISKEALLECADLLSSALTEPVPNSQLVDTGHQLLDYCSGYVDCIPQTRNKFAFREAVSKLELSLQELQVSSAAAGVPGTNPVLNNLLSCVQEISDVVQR

EphA7(h) (human) = EphA7(h) (human) (UniProt Q15375)
DAPK1(h) (human) = DAPK1(h) (human) (UniProt P53355)
PKCι(h) (human) = PKCι(h) (human) (UniProt P41743)
Lck(h) activated (human) = Lck(h) activated (human) (UniProt P06239)
ASK1(h) (human) = ASK1(h) (human) (UniProt Q99683)
JNK2α2(h) (human) = JNK2α2(h) (human) (UniProt P45984)

Row | % activity at 100 µM (TrkA(h) (human)) [%] | % activity at 100 µM (BrSK1(h) (human)) [%] | % activity at 100 µM (PKCµ(h) (human)) [%] | % activity at 100 µM (CDK2/cyclinA(h) (human)) [%] | % activity at 100 µM (HIPK2(h) (human)) [%] | % activity at 100 µM (Rsk3(h) (human)) [%] | % activity at 100 µM (MKK6(h) (human)) [%] | % activity at 100 µM (eEF-2K(h) (human)) [%] | % activity at 100 µM [1] [%] | % activity at 100 µM (Arg(h) (human)) [%] | % activity at 100 µM (EphA7(h) (human)) [%] | % activity at 100 µM (DAPK1(h) (human)) [%] | % activity at 100 µM (PKCι(h) (human)) [%] | % activity at 100 µM (Lck(h) activated (human)) [%] | % activity at 100 µM (ASK1(h) (human)) [%] | % activity at 100 µM (JNK2α2(h) (human)) [%] | Substance
1 | 25 | 67 | 22 | 86 | 73 | 76 | 48 | 91 | 80 | 72 | 159 | 46 | 68 | 243 | 80 | 98 | MMI-0300 (peptide)
2 | 17 | 76 | 14 | 92 | 90 | 71 | 44 | 43 | 77 | 84 | 222 | 36 | 46 | 216 | 69 | 96 | MMI-0400 (peptide)
3 | 24 | 72 | 10 | 87 | 38 | 23 | 18 | 43 | 45 | 22 | 189 | 0 | 7 | 76 | -4 | 81 | MMI-0500 (peptide)
